Data from paper PMC9520691 (ACS Omega, 2022).
“And” between values parts separate entries of the source, which are not always exact repeats. Identical values can stand only once.

Molecular target: the molecule itself
Assay: AUC

B1: full length ODC wildtype (enzyme, human, UniProt P11926 1-461, looked up)
chain: MNNFGNEEFDCHFLDEGFTAKDILDQKINEVSSSDDKDAFYVADLGDILKKHLRWLKALPRVTPFYAVKCNDSKAIVKTLAATGTGFDCASKTEIQLVQSLGVPPERIIYANPCKQVSQIKYAANNGVQMMTFDSEVELMKVARAHPKAKLVLRIATDDSKAVCRLSVKFGATLRTSRLLLERAKELNIDVVGVSFHVGSGCTDPETFVQAISDARCVFDMGAEVGFSMYLLDIGGGFPGSEDVKLKFEEITGVINPALDKYFPSDSGVRIIAEPGRYYVASAFTLAVNIIAKKIVLKEQTGSDDEDESSEQTFMYYVNDGVYGSFNCILYDHAHVKPLLQKRPKPDEKYYSSSIWGPTCDGLDRIVERCDLPEMHVGDWMLFENMGAYTVAAASTFNGFQRPTIYYVMSGPAWQLMQQFQNPDFPPEVEEQDASTLPVSCAWESGMKRHRAACASASINV
stoichiometry N: 2

B2: full length ODC G84R (enzyme, human, UniProt P11926 1-461, looked up)
chain: MNNFGNEEFDCHFLDEGFTAKDILDQKINEVSSSDDKDAFYVADLGDILKKHLRWLKALPRVTPFYAVKCNDSKAIVKTLAATRTGFDCASKTEIQLVQSLGVPPERIIYANPCKQVSQIKYAANNGVQMMTFDSEVELMKVARAHPKAKLVLRIATDDSKAVCRLSVKFGATLRTSRLLLERAKELNIDVVGVSFHVGSGCTDPETFVQAISDARCVFDMGAEVGFSMYLLDIGGGFPGSEDVKLKFEEITGVINPALDKYFPSDSGVRIIAEPGRYYVASAFTLAVNIIAKKIVLKEQTGSDDEDESSEQTFMYYVNDGVYGSFNCILYDHAHVKPLLQKRPKPDEKYYSSSIWGPTCDGLDRIVERCDLPEMHVGDWMLFENMGAYTVAAASTFNGFQRPTIYYVMSGPAWQLMQQFQNPDFPPEVEEQDASTLPVSCAWESGMKRHRAACASASINV
stoichiometry N: 2 and 3
